Results on 16 molecules are retold here after patent US20240400708A1.

In the assay the target is feline FcRn complex (FcRn-α subunit and β-microglobulin), biotin labeled (feline). Nature of the assay: SPR, pH 6. (In general: In SPR one partner is held on a chip, and binding of the other changes the refractive index at the surface.)

B1: feline IgG1a T256Y (antibody, part only; not given: Variable domains, not shown: another chain or arm of the molecule)
constant: ASTTAPSVFPLAPSCGTTSGATVALACLVLGYFPEPVTVSWNSGALTSGVHTFPAVLQASGLYSLSSMVTVPSSRWLSDTFTCNVAHPPSNTKVDKTVRKTDHPPGPKPCDCPKCPPPEMLGGPSIFIFPPKPKDTLSISRYPEVTCLVVDLGPDDSDVQITWFVDNTQVYTAKTSPREEQFNSTYRVVSVLPILHQDWLKGKEFKCKVNSKSLPSPIERTISKAKGQPHEPQVYVLPPAQEELSRNKVSVTCLIKSFHPPDIAVEWEITGQPEPENNYRTTPPQLDSDGTYFVYSKLSVDRSHWQRGNTYTCSVSHEALHSHHTQKSLTQSPGK
As for B1, the Kd (commonly the concentration at which binding is half-saturated) came out at 22 nM.

B2: feline IgG1a S252Y/L314K (antibody, part only; not given: Variable domains, not shown: another chain or arm of the molecule)
constant: ASTTAPSVFPLAPSCGTTSGATVALACLVLGYFPEPVTVSWNSGALTSGVHTFPAVLQASGLYSLSSMVTVPSSRWLSDTFTCNVAHPPSNTKVDKTVRKTDHPPGPKPCDCPKCPPPEMLGGPSIFIFPPKPKDTLYISRTPEVTCLVVDLGPDDSDVQITWFVDNTQVYTAKTSPREEQFNSTYRVVSVLPILHQDWKKGKEFKCKVNSKSLPSPIERTISKAKGQPHEPQVYVLPPAQEELSRNKVSVTCLIKSFHPPDIAVEWEITGQPEPENNYRTTPPQLDSDGTYFVYSKLSVDRSHWQRGNTYTCSVSHEALHSHHTQKSLTQSPGK
For the molecule B2, the Kd amounted to 10.9 nM.

B3: feline IgG1a T256S (antibody, part only; not given: Variable domains, not shown: another chain or arm of the molecule)
constant: ASTTAPSVFPLAPSCGTTSGATVALACLVLGYFPEPVTVSWNSGALTSGVHTFPAVLQASGLYSLSSMVTVPSSRWLSDTFTCNVAHPPSNTKVDKTVRKTDHPPGPKPCDCPKCPPPEMLGGPSIFIFPPKPKDTLSISRSPEVTCLVVDLGPDDSDVQITWFVDNTQVYTAKTSPREEQFNSTYRVVSVLPILHQDWLKGKEFKCKVNSKSLPSPIERTISKAKGQPHEPQVYVLPPAQEELSRNKVSVTCLIKSFHPPDIAVEWEITGQPEPENNYRTTPPQLDSDGTYFVYSKLSVDRSHWQRGNTYTCSVSHEALHSHHTQKSLTQSPGK
B3 showed a Kd of 2140 nM.

B4: feline IgG1a S434T (antibody, part only; not given: Variable domains, not shown: another chain or arm of the molecule)
constant: ASTTAPSVFPLAPSCGTTSGATVALACLVLGYFPEPVTVSWNSGALTSGVHTFPAVLQASGLYSLSSMVTVPSSRWLSDTFTCNVAHPPSNTKVDKTVRKTDHPPGPKPCDCPKCPPPEMLGGPSIFIFPPKPKDTLSISRTPEVTCLVVDLGPDDSDVQITWFVDNTQVYTAKTSPREEQFNSTYRVVSVLPILHQDWLKGKEFKCKVNSKSLPSPIERTISKAKGQPHEPQVYVLPPAQEELSRNKVSVTCLIKSFHPPDIAVEWEITGQPEPENNYRTTPPQLDSDGTYFVYSKLSVDRSHWQRGNTYTCSVSHEALHTHHTQKSLTQSPGK
Molecule B4 returned a Kd of 10.6 nM.

B5: feline IgG1a S252Y/S428Y/Q311W (antibody, part only; not given: Variable domains, not shown: another chain or arm of the molecule)
constant: ASTTAPSVFPLAPSCGTTSGATVALACLVLGYFPEPVTVSWNSGALTSGVHTFPAVLQASGLYSLSSMVTVPSSRWLSDTFTCNVAHPPSNTKVDKTVRKTDHPPGPKPCDCPKCPPPEMLGGPSIFIFPPKPKDTLYISRTPEVTCLVVDLGPDDSDVQITWFVDNTQVYTAKTSPREEQFNSTYRVVSVLPILHWDWLKGKEFKCKVNSKSLPSPIERTISKAKGQPHEPQVYVLPPAQEELSRNKVSVTCLIKSFHPPDIAVEWEITGQPEPENNYRTTPPQLDSDGTYFVYSKLSVDRSHWQRGNTYTCSVYHEALHSHHTQKSLTQSPGK
B5 displayed a Kd of 67.7 nM.

B6: feline IgG1a Q311W/D312P/L314K (antibody, part only; not given: Variable domains, not shown: another chain or arm of the molecule)
constant: ASTTAPSVFPLAPSCGTTSGATVALACLVLGYFPEPVTVSWNSGALTSGVHTFPAVLQASGLYSLSSMVTVPSSRWLSDTFTCNVAHPPSNTKVDKTVRKTDHPPGPKPCDCPKCPPPEMLGGPSIFIFPPKPKDTLSISRTPEVTCLVVDLGPDDSDVQITWFVDNTQVYTAKTSPREEQFNSTYRVVSVLPILHWPWKKGKEFKCKVNSKSLPSPIERTISKAKGQPHEPQVYVLPPAQEELSRNKVSVTCLIKSFHPPDIAVEWEITGQPEPENNYRTTPPQLDSDGTYFVYSKLSVDRSHWQRGNTYTCSVSHEALHSHHTQKSLTQSPGK
Consider B6, for which the Kd amounted to 1230 nM.

B7: feline IgG1a D312H (antibody, part only; not given: Variable domains, not shown: another chain or arm of the molecule; small tags and cut ends)
constant: ASTTAPSVFPLAPSCGTTSGATVALACLVLGYFPEPVTVSWNSGALTSGVHTFPAVLQASGLYSLSSMVTVPSSRWLSDTFTCNVAHPPSNTKVDKTVRKTDHPPGPKPCDCPKCPPPEMLGGPSIFIFPPKPKDTLSISRTPEVTCLVVDLGPDDSDVQITWFVDNTQVYTAKTSPREEQFNSTYRVVSVLPILHQHWLKGKEFKCKVNSKSLPSPIERTISKAKGQPHEPQVYVLPPAQEELSRNKVSVTCLIKSFHPPDIAVEWEITGQPEPENNYRTTPPQLDSDGTYFVYSKLSVDRSHWQRGNTYTCSVSHEALHSHHTQKSLTQSPGK
As to B7, the Kd stood at 7.33 nM.

B8: feline IgG1a S252Y/D312P (antibody, part only; not given: Variable domains, not shown: another chain or arm of the molecule; small tags and cut ends)
constant: ASTTAPSVFPLAPSCGTTSGATVALACLVLGYFPEPVTVSWNSGALTSGVHTFPAVLQASGLYSLSSMVTVPSSRWLSDTFTCNVAHPPSNTKVDKTVRKTDHPPGPKPCDCPKCPPPEMLGGPSIFIFPPKPKDTLYISRTPEVTCLVVDLGPDDSDVQITWFVDNTQVYTAKTSPREEQFNSTYRVVSVLPILHQPWLKGKEFKCKVNSKSLPSPIERTISKAKGQPHEPQVYVLPPAQEELSRNKVSVTCLIKSFHPPDIAVEWEITGQPEPENNYRTTPPQLDSDGTYFVYSKLSVDRSHWQRGNTYTCSVSHEALHSHHTQKSLTQSPGK
B8: the Kd was 10.5 nM.

B9: feline IgG1a S252Y/Q311W/S434Y (antibody, part only; not given: Variable domains, not shown: another chain or arm of the molecule)
constant: ASTTAPSVFPLAPSCGTTSGATVALACLVLGYFPEPVTVSWNSGALTSGVHTFPAVLQASGLYSLSSMVTVPSSRWLSDTFTCNVAHPPSNTKVDKTVRKTDHPPGPKPCDCPKCPPPEMLGGPSIFIFPPKPKDTLYISRTPEVTCLVVDLGPDDSDVQITWFVDNTQVYTAKTSPREEQFNSTYRVVSVLPILHWDWLKGKEFKCKVNSKSLPSPIERTISKAKGQPHEPQVYVLPPAQEELSRNKVSVTCLIKSFHPPDIAVEWEITGQPEPENNYRTTPPQLDSDGTYFVYSKLSVDRSHWQRGNTYTCSVSHEALHYHHTQKSLTQSPGK
The molecule B9 displayed a Kd of 97.2 nM.

B10: feline IgG1a S434V (antibody, part only; not given: Variable domains, not shown: another chain or arm of the molecule)
constant: ASTTAPSVFPLAPSCGTTSGATVALACLVLGYFPEPVTVSWNSGALTSGVHTFPAVLQASGLYSLSSMVTVPSSRWLSDTFTCNVAHPPSNTKVDKTVRKTDHPPGPKPCDCPKCPPPEMLGGPSIFIFPPKPKDTLSISRTPEVTCLVVDLGPDDSDVQITWFVDNTQVYTAKTSPREEQFNSTYRVVSVLPILHQDWLKGKEFKCKVNSKSLPSPIERTISKAKGQPHEPQVYVLPPAQEELSRNKVSVTCLIKSFHPPDIAVEWEITGQPEPENNYRTTPPQLDSDGTYFVYSKLSVDRSHWQRGNTYTCSVSHEALHVHHTQKSLTQSPGK
Regarding B10, the dissociation constant Kd is 3.71 nM.

B11: feline IgG1a S252Y/S434Y (antibody, part only; not given: Variable domains, not shown: another chain or arm of the molecule)
constant: ASTTAPSVFPLAPSCGTTSGATVALACLVLGYFPEPVTVSWNSGALTSGVHTFPAVLQASGLYSLSSMVTVPSSRWLSDTFTCNVAHPPSNTKVDKTVRKTDHPPGPKPCDCPKCPPPEMLGGPSIFIFPPKPKDTLYISRTPEVTCLVVDLGPDDSDVQITWFVDNTQVYTAKTSPREEQFNSTYRVVSVLPILHQDWLKGKEFKCKVNSKSLPSPIERTISKAKGQPHEPQVYVLPPAQEELSRNKVSVTCLIKSFHPPDIAVEWEITGQPEPENNYRTTPPQLDSDGTYFVYSKLSVDRSHWQRGNTYTCSVSHEALHYHHTQKSLTQSPGK
As to B11, the Kd came out at 116 nM.

B12: feline IgG1a S252Y/S434F/Q311W (antibody, part only; not given: Variable domains, not shown: another chain or arm of the molecule)
constant: ASTTAPSVFPLAPSCGTTSGATVALACLVLGYFPEPVTVSWNSGALTSGVHTFPAVLQASGLYSLSSMVTVPSSRWLSDTFTCNVAHPPSNTKVDKTVRKTDHPPGPKPCDCPKCPPPEMLGGPSIFIFPPKPKDTLYISRTPEVTCLVVDLGPDDSDVQITWFVDNTQVYTAKTSPREEQFNSTYRVVSVLPILHWDWLKGKEFKCKVNSKSLPSPIERTISKAKGQPHEPQVYVLPPAQEELSRNKVSVTCLIKSFHPPDIAVEWEITGQPEPENNYRTTPPQLDSDGTYFVYSKLSVDRSHWQRGNTYTCSVSHEALHFHHTQKSLTQSPGK
B12 registered a dissociation constant (Kd) of 164 nM.

B13: feline IgG1a S252Y/S428Y/S434Y (antibody, part only; not given: variable domains and light chain, not shown: another chain or arm of the molecule)
constant: ASTTAPSVFPLAPSCGTTSGATVALACLVLGYFPEPVTVSWNSGALTSGVHTFPAVLQASGLYSLSSMVTVPSSRWLSDTFTCNVAHPPSNTKVDKTVRKTDHPPGPKPCDCPKCPPPEMLGGPSIFIFPPKPKDTLYISRTPEVTCLVVDLGPDDSDVQITWFVDNTQVYTAKTSPREEQFNSTYRVVSVLPILHQDWLKGKEFKCKVNSKSLPSPIERTISKAKGQPHEPQVYVLPPAQEELSRNKVSVTCLIKSFHPPDIAVEWEITGQPEPENNYRTTPPQLDSDGTYFVYSKLSVDRSHWQRGNTYTCSVYHEALHYHHTQKSLTQSPGK
The molecule B13 displayed a dissociation constant (Kd) of 78.1 nM.

B14: feline IgG1a Q311W/S434Y (antibody, part only; not given: Variable domains, not shown: another chain or arm of the molecule)
constant: ASTTAPSVFPLAPSCGTTSGATVALACLVLGYFPEPVTVSWNSGALTSGVHTFPAVLQASGLYSLSSMVTVPSSRWLSDTFTCNVAHPPSNTKVDKTVRKTDHPPGPKPCDCPKCPPPEMLGGPSIFIFPPKPKDTLSISRTPEVTCLVVDLGPDDSDVQITWFVDNTQVYTAKTSPREEQFNSTYRVVSVLPILHWDWLKGKEFKCKVNSKSLPSPIERTISKAKGQPHEPQVYVLPPAQEELSRNKVSVTCLIKSFHPPDIAVEWEITGQPEPENNYRTTPPQLDSDGTYFVYSKLSVDRSHWQRGNTYTCSVSHEALHYHHTQKSLTQSPGK
In turn, B14 had an equilibrium dissociation constant (Kd) of 27 nM.

B15: feline IgG1a S252Y/S428Y (antibody, part only; not given: Variable domains, not shown: another chain or arm of the molecule)
constant: ASTTAPSVFPLAPSCGTTSGATVALACLVLGYFPEPVTVSWNSGALTSGVHTFPAVLQASGLYSLSSMVTVPSSRWLSDTFTCNVAHPPSNTKVDKTVRKTDHPPGPKPCDCPKCPPPEMLGGPSIFIFPPKPKDTLYISRTPEVTCLVVDLGPDDSDVQITWFVDNTQVYTAKTSPREEQFNSTYRVVSVLPILHQDWLKGKEFKCKVNSKSLPSPIERTISKAKGQPHEPQVYVLPPAQEELSRNKVSVTCLIKSFHPPDIAVEWEITGQPEPENNYRTTPPQLDSDGTYFVYSKLSVDRSHWQRGNTYTCSVYHEALHSHHTQKSLTQSPGK
As for B15, the Kd is 17.2 nM.

B16: feline IgG1a S252Y/S434F (antibody, part only; not given: Variable domains, not shown: another chain or arm of the molecule)
constant: ASTTAPSVFPLAPSCGTTSGATVALACLVLGYFPEPVTVSWNSGALTSGVHTFPAVLQASGLYSLSSMVTVPSSRWLSDTFTCNVAHPPSNTKVDKTVRKTDHPPGPKPCDCPKCPPPEMLGGPSIFIFPPKPKDTLYISRTPEVTCLVVDLGPDDSDVQITWFVDNTQVYTAKTSPREEQFNSTYRVVSVLPILHQDWLKGKEFKCKVNSKSLPSPIERTISKAKGQPHEPQVYVLPPAQEELSRNKVSVTCLIKSFHPPDIAVEWEITGQPEPENNYRTTPPQLDSDGTYFVYSKLSVDRSHWQRGNTYTCSVSHEALHFHHTQKSLTQSPGK
B16 registered a Kd of 1970 nM.
